According to IntAct's records for PubMed 11265755:

Target: esr1_human ESR1 (UniProt P03372)
Sequence (P03372 whole entry): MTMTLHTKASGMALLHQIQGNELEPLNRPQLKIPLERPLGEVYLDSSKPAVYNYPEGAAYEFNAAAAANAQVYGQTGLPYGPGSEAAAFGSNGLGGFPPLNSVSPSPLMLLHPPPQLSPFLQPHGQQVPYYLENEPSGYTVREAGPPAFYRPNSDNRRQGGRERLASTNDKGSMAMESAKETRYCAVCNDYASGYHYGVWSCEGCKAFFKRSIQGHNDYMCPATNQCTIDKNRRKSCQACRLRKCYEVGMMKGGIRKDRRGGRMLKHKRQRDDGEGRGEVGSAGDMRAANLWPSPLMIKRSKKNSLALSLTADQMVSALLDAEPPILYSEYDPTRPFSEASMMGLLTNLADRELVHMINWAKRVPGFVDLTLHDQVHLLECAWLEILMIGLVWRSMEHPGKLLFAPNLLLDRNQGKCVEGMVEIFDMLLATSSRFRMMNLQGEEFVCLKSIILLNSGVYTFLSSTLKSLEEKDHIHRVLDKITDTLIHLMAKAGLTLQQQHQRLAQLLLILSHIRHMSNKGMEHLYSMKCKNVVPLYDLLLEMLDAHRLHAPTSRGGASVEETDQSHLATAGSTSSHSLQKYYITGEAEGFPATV

Substance: Nuclear receptor coactivator 2 (Homo sapiens), Q15596 L644A;L645A;L693A;L694A;L748A;L749A
- effect of a mutation on the interaction: disrupting interaction
